Test [1] has as its target T1, IL-2Rα in a human Fc fusion protein format (ACROBiosystems) (human, UniProt P01589 22-213, limits assumed).
T1 construct: Bought reagent; also called CD25; not shown: human Fc (captured by anti-human IgG Fc)
T1 sequence (looked up): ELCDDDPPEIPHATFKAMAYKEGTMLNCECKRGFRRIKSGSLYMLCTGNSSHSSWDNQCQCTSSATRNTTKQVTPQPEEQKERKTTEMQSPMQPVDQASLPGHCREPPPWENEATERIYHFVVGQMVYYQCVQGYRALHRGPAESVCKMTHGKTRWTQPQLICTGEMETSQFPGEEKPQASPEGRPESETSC
The experiment in a line: ELISA; EC50 on IL-2Rα over EC50 on IL-2Rβγ (reference). The method, then: (§1) IL-2Rα and IL-2R βγ-human Fc fusion protein constructs (ACRO Biosystems) were each expressed and immobilized by anti-Human IgG Fc (abeam), which were then captured on the surface of wells of a microplate. […] Binding was detected using anti-His or anti-PEG antibody conjugated to horse radish peroxidase (HRP) (Genscript), which was incubated with substrate. The quantification of binding was measured with an absorbance-based microplate reader. Data were analyzed by Graphpas prism9 Software.
Background: In an ELISA, binding on a coated surface is turned into a signal by an enzyme label.

The target in test [2] is T1, IL-2Rα in a human Fc fusion protein …. The experiment in a line: ELISA, receptor-Fc captured by anti-human IgG Fc, anti-His-HRP detection. The protocol: as §1
Test [3] has as its target T2, IL-2Rβγ-human Fc fusion protein construct (ACRO Biosystems) (human, UniProt P14784 27-239; P31785 23-262, limits assumed).
T2 construct: not shown: human Fc
T2 sequence (looked up) 1: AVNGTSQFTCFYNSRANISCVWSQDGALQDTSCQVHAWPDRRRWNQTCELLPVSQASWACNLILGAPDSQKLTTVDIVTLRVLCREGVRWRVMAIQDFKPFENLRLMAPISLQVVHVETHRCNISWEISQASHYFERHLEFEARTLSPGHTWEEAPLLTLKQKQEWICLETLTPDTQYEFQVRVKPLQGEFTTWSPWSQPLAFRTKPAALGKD
T2 sequence (looked up) 2: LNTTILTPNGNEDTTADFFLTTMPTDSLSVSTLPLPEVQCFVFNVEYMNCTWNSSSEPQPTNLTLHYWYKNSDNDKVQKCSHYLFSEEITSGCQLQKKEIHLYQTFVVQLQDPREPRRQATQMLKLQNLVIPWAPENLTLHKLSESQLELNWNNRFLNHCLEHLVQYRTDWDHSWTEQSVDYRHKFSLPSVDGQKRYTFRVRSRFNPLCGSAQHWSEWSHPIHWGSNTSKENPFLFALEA
Described as above. The method, then:
as §1

The target in another test is T3, IL2R αβγ.
T3 construct: Cell-free IL-2Rαβγ on a biosensor; not the cell-borne receptors m18 and m19; also called IL-2Rαβγ (ligand on the sensor)
Nature of the test: biosensor kinetics, receptor as ligand on the sensor, IL-2 protein as sample, 1:1 Binding model (legend: Octet QKe; table heads give RU). (In general: Biolayer interferometry detects binding as a change in optical thickness at a sensor tip.)

In test [4] the target is T1, IL-2Rα in a human Fc fusion protein …. Described as above.
The target of test [5] is T2, IL-2Rβγ-human Fc fusion protein …. The description is as above.
Test [6] has as its target T1, IL-2Rα in a human Fc fusion protein …. The experiment in a line: BLI (Octet QKe), IL-2Rα-Fc captured on AHC sensors, 1:1 fit. An excerpt: (§2) IL-2Rα or IL-2Rβ in a human Fc fusion protein format (ACROBiosystems) were captured on anti-human IgG Fc capture (AHC) sensors. […] Dissociation was detected following transfer of sensors into wells containing buffer alone. Data were collected and analyzed by the Octet User Software. For analysis of the kinetics constants, a 1:1 curve fitting model was used.

The target is the same in test [7]. Nature of the test: BLI (Octet QKe), IL-2Rα-Fc captured on AHC sensors, 1:1 fit; row printed a second time.
Excerpt: as §2

As a reminder, the EC50 is the concentration needed to bring the measured effect to its halfway point. Read a low EC50 as higher potency in that assay. For orientation: Kd means the equilibrium constant for the complex coming apart. One may read the koff as a measure of how fast the partners let go of each other. Low readings indicate slow dissociation, high ones fast dissociation. For orientation: kon means the second-order rate constant of association. Low values mean slower complex formation, high ones faster complex formation.

B1: ACT5210, IL-2 mutein Y31C + L18M + L19S (ligand)
chain: APTSSSTKKTQLQLEHLMSDLQMILNGINNCKNPKLTRMLTFKFYMPKKATELKHLQCLEEELKPLEEVLNLAQSKNFHLRPRDLISNINVIVLELKGSETTFMCEYADETATIVEFLNRWITFSQSIISTLT
notes: Not PEGylated; rhIL-2 (C125S) background; also called His-conjugated IL-2 mutein (ACT5210); not shown: His-Tag
B1: the “Ratio (α/βγ) of EC50” value in test [1] is 0.06. The EC50 in test [2] was found to be 0.0025 µg/mL; in test [3] it was 0.0396 µg/mL. The Kd was determined as 0.0113 nM in the test with IL2R αβγ, 28.4 nM in test [4] and 1.04 nM in test [5]. Also, the results for the koff (with IL2R αβγ; in test [4]; in test [5]) were 0.000281 s⁻¹, 0.164 s⁻¹ and 0.000837 s⁻¹, respectively. Further, the on-rate constant (kon) stood at 2.48e+07 M⁻¹ s⁻¹ with IL2R αβγ, 5.75e+06 M⁻¹ s⁻¹ in test [4] and 807000 M⁻¹ s⁻¹ in test [5].

B2: ACT5271, IL-2 mutein Y31C + V69A + Q74P + N30S (PEG20K) (ligand)
chain: APTSSSTKKTQLQLEHLLLDLQMILNGINSCKNPKLTRMLTFKFYMPKKATELKHLQCLEEELKPLEEALNLAPSKNFHLRPRDLISNINVIVLELKGSETTFMCEYADETATIVEFLNRWITFSQSIISTLT
modifications: maleimide-PEG 20K on Cys 31
notes: rhIL-2 (C125S) background; also called Y31C - PEG20 + V69A + Q74P + N30S; not shown: His-Tag
With B2, in test [6], the dissociation constant Kd was 9.14 nM, the koff was 0.0029 s⁻¹ and the kon was determined as 318000 M⁻¹ s⁻¹.

B3: IL-2 mutein Y31C - PEG20 + N30G (ligand)
chain: APTSSSTKKTQLQLEHLLLDLQMILNGINGCKNPKLTRMLTFKFYMPKKATELKHLQCLEEELKPLEEVLNLAQSKNFHLRPRDLISNINVIVLELKGSETTFMCEYADETATIVEFLNRWITFSQSIISTLT
modifications: maleimide-PEG 20K on Cys 31
notes: not shown: His-Tag
In test [6], B3 yielded a Kd of 61 nM, a koff of 0.0232 s⁻¹ and a kon of 379000 M⁻¹ s⁻¹. In test [7], the affinity, expressed as Kd, was 61 nM; the koff is 0.0232 s⁻¹; the on-rate (kon) is 379000 M⁻¹ s⁻¹.

B4: ACT5281, IL-2 mutein Y31C + V69A + Q74P + N88R (PEG20K) (ligand)
chain: APTSSSTKKTQLQLEHLLLDLQMILNGINNCKNPKLTRMLTFKFYMPKKATELKHLQCLEEELKPLEEALNLAPSKNFHLRPRDLISRINVIVLELKGSETTFMCEYADETATIVEFLNRWITFSQSIISTLT
modifications: maleimide-PEG 20K on Cys 31
notes: rhIL-2 (C125S) background; also called Y31C - PEG20 + V69A + Q74P + N88R; not shown: His-Tag
B4: in test [6], the affinity, expressed as Kd, was 10.6 nM; the koff was 0.0037 s⁻¹; the on-rate (kon) is 345000 M⁻¹ s⁻¹.

B5: ACT5231, IL-2 mutein Y31C + V69A + Q74P (PEG20K) (ligand)
chain: APTSSSTKKTQLQLEHLLLDLQMILNGINNCKNPKLTRMLTFKFYMPKKATELKHLQCLEEELKPLEEALNLAPSKNFHLRPRDLISNINVIVLELKGSETTFMCEYADETATIVEFLNRWITFSQSIISTLT
modifications: maleimide-PEG 20K on Cys 31
notes: rhIL-2 (C125S) background; also called Y31C - PEG20 + V69A + Q74P; not shown: His-Tag
For the molecule B5, in test [6], binding was characterised by a dissociation constant (Kd) of 9.09 nM, the koff amounted to 0.00431 s⁻¹ and the on-rate constant (kon) is 474000 M⁻¹ s⁻¹.

B6: IL-2 mutein Y31C - PEG20 + V69A + Q74P + I128T (ligand)
chain: APTSSSTKKTQLQLEHLLLDLQMILNGINNCKNPKLTRMLTFKFYMPKKATELKHLQCLEEELKPLEEALNLAPSKNFHLRPRDLISNINVIVLELKGSETTFMCEYADETATIVEFLNRWITFSQSTISTLT
modifications: maleimide-PEG 20K on Cys 31
notes: not shown: His-Tag
In test [6], B6 displayed a Kd of 8.86 nM, a koff of 0.0035 s⁻¹ and a kon of 393000 M⁻¹ s⁻¹.

B7: ACT5291, IL-2 mutein Y31C + V69A + Q74P + V91K (PEG20K) (ligand)
chain: APTSSSTKKTQLQLEHLLLDLQMILNGINNCKNPKLTRMLTFKFYMPKKATELKHLQCLEEELKPLEEALNLAPSKNFHLRPRDLISNINKIVLELKGSETTFMCEYADETATIVEFLNRWITFSQSIISTLT
modifications: maleimide-PEG 20K on Cys 31
notes: rhIL-2 (C125S) background; also called Y31C - PEG20 + V69A + Q74P + V91K; not shown: His-Tag
With B7, in test [6], the Kd came out at 9.07 nM, the koff was found to be 0.0032 s⁻¹ and the kon stood at 355000 M⁻¹ s⁻¹.

B8: IL-2 mutein Y31C - PEG20 + N30A (ligand)
chain: APTSSSTKKTQLQLEHLLLDLQMILNGINACKNPKLTRMLTFKFYMPKKATELKHLQCLEEELKPLEEVLNLAQSKNFHLRPRDLISNINVIVLELKGSETTFMCEYADETATIVEFLNRWITFSQSIISTLT
modifications: maleimide-PEG 20K on Cys 31
notes: not shown: His-Tag
As to B8, in test [6], the Kd is 37.3 nM, the koff came out at 0.0194 s⁻¹ and the on-rate (kon) was found to be 520000 M⁻¹ s⁻¹.

B9: ACT522S1, IL-2 mutein Y31C + N30S (PEG20K) (ligand)
chain: APTSSSTKKTQLQLEHLLLDLQMILNGINSCKNPKLTRMLTFKFYMPKKATELKHLQCLEEELKPLEEVLNLAQSKNFHLRPRDLISNINVIVLELKGSETTFMCEYADETATIVEFLNRWITFSQSIISTLT
modifications: maleimide-PEG 20K on Cys 31
notes: rhIL-2 (C125S) background; also called Y31C - PEG20 + N30S; not shown: His-Tag
In test [6], B9 gave a Kd of 47.3 nM, a koff of 0.0302 s⁻¹ and a kon of 639000 M⁻¹ s⁻¹.

B10: ACT5261, IL-2 mutein Y31C + L18M + L19S + V69A + Q74P (PEG20K) (ligand)
chain: APTSSSTKKTQLQLEHLMSDLQMILNGINNCKNPKLTRMLTFKFYMPKKATELKHLQCLEEELKPLEEALNLAPSKNFHLRPRDLISNINVIVLELKGSETTFMCEYADETATIVEFLNRWITFSQSIISTLT
modifications: maleimide-PEG 20K on Cys 31
notes: rhIL-2 (C125S) background; also called Y31C - PEG20 + L18M + L19S + V69A + Q74P; not shown: His-Tag
In test [6], B10 showed a Kd of 7.38 nM, a koff of 0.0043 s⁻¹ and a kon of 581000 M⁻¹ s⁻¹.

(Values after US20240010697A1 (CYTIMM THERAPEUTICS, published 2024).)
